The supplement of paper PMC12783771
± gives the standard deviation of the averaged measurements.

B1: library; numbered along this chain (parent)
chain: MNIQIGELAKRTACPVVTIRFYEQEGLLPPPGRSRGNFRLYGEEHVERLQFIRHCRSLDMPLSDVRTLLSYRKRPDQDCGEVNMLLDEHIRQVESRIGALLELKHHLVELREACSGARPAQSCGILQGLSDCVCDTRGTTAHPSD

Tests used:
[1] = variants of: B1; assay: sfGFP reporter fluorescence (15 h) (µM FITC); higher = higher leak; settings: library round: Round 1; ligand: none
Procedure, shortened: (§1)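 Linear PbrR templates were made by PCR, normalized to 5 nM with an Echo, and expressed in BL21 Star (DE3) PANOx-SP extract with the pPbrR-sfGFP reporter plasmid and 30 μg/mL GamS. Echo-assembled 1 μL reactions held 1 µM lead chloride, 30 µM zinc acetate or no metal and were incubated 15 hr at 30 °C. Endpoint sfGFP fluorescence was read on a Synergy Neo2 and expressed as µM FITC using standard curves. Up to three biological replicates were run.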

[2] = variants of: B1; assay: sfGFP reporter fluorescence (15 h) (µM FITC); higher = stronger transcriptional activation; settings: library round: Round 1
Procedure, shortened: as §1

Row | Variant | sfGFP reporter fluorescence [1] | sfGFP reporter fluorescence ([2]; ligand: 1 µM Pb) | sfGFP reporter fluorescence ([2]; ligand: 30 µM Zn)
1 | G128L D135A | 0.075 ± 0.0011 | 0.155 ± 0.011 | 0.981 ± 0.14
2 | R111I G128I | 0.0666 ± 0.0015 | 0.127 ± 0.0043 | 0.695 ± 0.036
3 | Q127S | 0.0614 ± 0.00076 | 0.0649 ± 0.0047 | 0.118 ± 0.0086
4 | V16C K104V | 0.0623 ± 0.0024 | 0.0778 ± 0.0038 | 0.0911 ± 0.012
5 | D131S D135A | 0.0649 ± 0.0016 | 0.0893 ± 0.0049 | 0.459 ± 0.015
6 | D131S D135P | 0.0663 ± 0.0043 | 0.105 ± 0.0076 | 0.547 ± 0.082
7 | D131A P143L | 0.07208 ± 0.00056 | 0.0969 ± 0.0024 | 0.559 ± 0.0079
8 | L107I C114R | 0.059 ± 0.0019 | 0.0512 ± 0.0044 | 0.0514 ± 0.00092
9 | N83T V108L D131C | 0.06218 ± 0.00042 | 0.0745 ± 0.0076 | 0.0858 ± 0.0057
10 | D131F D135A | 0.0667 ± 0.0016 | 0.071 ± 0.0022 | 0.345 ± 0.018
11 | D131H P143Y | 0.064 ± 0.0022 | 0.0797 ± 0.012 | 0.383 ± 0.0077
12 | N83T L107C G128I | 0.195 ± 0.0097 | 0.702 ± 0.17 | 1.75 ± 0.2
13 | D64K N83S I90N | 0.0679 ± 0.0014 | 0.223 ± 0.065 | 0.737 ± 0.02
14 | P61N E112V | 0.0641 ± 0.0026 | 0.0906 ± 0.0036 | 0.387 ± 0.058
15 | P61N D64A | 0.0855 ± 0.0012 | 0.183 ± 0.013 | 1.07 ± 0.098
16 | N83T R111A | 0.0564 ± 0.00097 | 0.0834 ± 0.0021 | 0.341 ± 0.031
17 | N83T R111D | 0.0624 ± 0.00076 | 0.06 ± 0.0029 | 0.068 ± 0.0024
18 | N83T R111F | 0.0639 ± 0.0014 | 0.0644 ± 0.004 | 0.085 ± 0.0026
19 | N83T L107C D135A P143T | 0.1501 ± 0.0015 | 0.642 ± 0.046 | 1.85 ± 0.12
20 | D64K C79L | 0.0594 ± 0.00097 | 0.05925 ± 0.00021 | 0.0572 ± 0.00064
21 | M84A D131H | 0.0584 ± 0.0011 | 0.0712 ± 0.002 | 0.463 ± 0.061
22 | N83T D131H | 0.0632 ± 0.0011 | 0.0836 ± 0.0011 | 0.14 ± 0.012
23 | N83T D131C | 0.0627 ± 0.0013 | 0.0738 ± 0.0019 | 0.0784 ± 0.0036

Row | Variant | sfGFP reporter fluorescence [1] | sfGFP reporter fluorescence ([2]; ligand: 1 µM Pb) | sfGFP reporter fluorescence ([2]; ligand: 30 µM Zn)
24 | N83T D131A | 0.0649 ± 0.0029 | 0.0917 ± 0.0025 | 0.169 ± 0.016
25 | L129M P143T | 0.0636 ± 0.0011 | 0.0636 ± 0.0025 | 0.07306 ± 0.00056
26 | L107C G128H | 0.132 ± 0.0069 | 0.409 ± 0.075 | 1.66 ± 0.14
27 | K104V V108R | 0.109 ± 0.0031 | 0.386 ± 0.041 | 1.52 ± 0.1
28 | N83T P143W | 0.0657 ± 0.0018 | 0.07806 ± 0.00064 | 0.131 ± 0.0017
29 | E109H D131C | 0.0634 ± 0.0019 | 0.0764 ± 0.0062 | 0.159 ± 0.017
30 | E25V R111M | 0.063 ± 0.0024 | 0.0654 ± 0.0053 | 0.152 ± 0.0061
31 | C55L K104V | 0.0651 ± 0.0015 | 0.0729 ± 0.004 | 0.121 ± 0.0031
32 | N83T C134A | 0.0602 ± 0.0013 | 0.0716 ± 0.0016 | 0.162 ± 0.014
33 | N83T C134L | 0.0568 ± 0.0011 | 0.0739 ± 0.003 | 0.159 ± 0.025
34 | R96Q | 0.0632 ± 0.0037 | 0.0982 ± 0.0089 | 0.455 ± 0.0056
35 | N83S K104V | 0.064 ± 0.0016 | 0.121 ± 0.0056 | 0.405 ± 0.015
36 | D64K R111A | 0.112 ± 0.0044 | 0.382 ± 0.052 | 1.83 ± 0.27
37 | M84A G124A | 0.0619 | 0.064 ± 0.0056 | 0.143 ± 0.0022
38 | D64K C114I | 0.05986 ± 0.00056 | 0.0594 ± 0.0011 | 0.0599 ± 0.0022
39 | V16C V46Y | 0.0651 ± 0.0018 | 0.07452 ± 0.00021 | 0.0793 ± 0.0053
40 | V16C V46C | 0.0646 ± 0.0017 | 0.066 ± 0.0025 | 0.0632 ± 0.0019
41 | N83T L85R | 0.061 ± 0.0026 | 0.0607 ± 0.0035 | 0.0601 ± 0.0029
42 | P61N D64K K104V L107C G128M | 0.854 ± 0.022 | 1.37 ± 0.39 | 2.24 ± 0.098
43 | I97A K104V | 0.0886 ± 0.0059 | 0.303 ± 0.071 | 1.11 ± 0.076
44 | K104V R111A | 0.0644 ± 0.0027 | 0.096 ± 0.0033 | 0.356 ± 0.013
45 | K104V R111D | 0.0612 ± 0.0019 | 0.0619 ± 0.0015 | 0.0723 ± 0.0033
46 | K104V R111L | 0.0656 ± 0.0016 | 0.0694 ± 0.0047 | 0.0976 ± 0.0039

Row | Variant | sfGFP reporter fluorescence [1] | sfGFP reporter fluorescence ([2]; ligand: 1 µM Pb) | sfGFP reporter fluorescence ([2]; ligand: 30 µM Zn)
47 | E43M G128I | 0.077 ± 0.0028 | 0.206 ± 0.025 | 1.23 ± 0.086
48 | D64K I97S | 0.0966 ± 0.0019 | 0.216 ± 0.016 | 1.09 ± 0.074
49 | M84Q R111L | 0.0624 ± 0.0054 | 0.0651 ± 0.0026 | 0.122 ± 0.0058
50 | D64T R111F | 0.09114 ± 0.00056 | 0.181 ± 0.022 | 1.71 ± 0.025
51 | N83T G128I | 0.059 ± 0.00064 | 0.133 ± 0.011 | 0.387 ± 0.038
52 | V108E E109H | 0.0605 ± 0.0011 | 0.0687 ± 0.003 | 0.224 ± 0.01
53 | E109L D135P | 0.0655 ± 0.0031 | 0.102 ± 0.0041 | 0.497 ± 0.027
54 | L107I P143R | 0.06365 ± 0.00021 | 0.0775 ± 0.0077 | 0.473 ± 0.02
55 | N83T L107Y | 0.0672 ± 0.0015 | 0.0739 ± 0.0066 | 0.0947 ± 0.0046
56 | L110I D135A | 0.0608 ± 0.00097 | 0.0588 ± 0.0053 | 1.94 ± 0.1
57 | I97S G128I | 0.0694 ± 0.0013 | 0.136 ± 0.023 | 0.89 ± 0.023
58 | G128S D135A | 0.0652 ± 0.0016 | 0.0925 ± 0.0068 | 0.604 ± 0.015
59 | N83T I97G | 0.06365 ± 0.00056 | 0.0646 ± 0.0051 | 0.0965 ± 0.0021
60 | N83T I97N | 0.06206 ± 0.00056 | 0.064 ± 0.0017 | 0.0862 ± 0.0011
61 | N83T I97H | 0.0607 ± 0.0023 | 0.0635 ± 0.00085 | 0.0778 ± 0.0044
62 | N83T I97C | 0.0623 ± 0.0016 | 0.063 ± 0.0038 | 0.109 ± 0.0073
63 | E109A R111L | 0.06463 ± 0.00021 | 0.0688 ± 0.0022 | 0.1654 ± 0.00092
64 | D131T V133P | 0.0641 ± 0.0013 | 0.0767 ± 0.0042 | 0.395 ± 0.036
65 | I97S K104V | 0.0836 ± 0.0026 | 0.247 ± 0.016 | 0.825 ± 0.05
66 | D131C P143A | 0.0583 ± 0.0013 | 0.0696 ± 0.0017 | 0.141 ± 0.011
67 | M84A I97G | 0.05986 ± 0.00042 | 0.0617 ± 0.0011 | 0.218 ± 0.017
68 | D64A E94R | 0.0816 ± 0.0051 | 0.179 ± 0.013 | 1.44 ± 0.18
69 | D131Y D135A | 0.0654 ± 0.0021 | 0.1 ± 0.0045 | 1.61 ± 0.27

Row | Variant | sfGFP reporter fluorescence [1] | sfGFP reporter fluorescence ([2]; ligand: 1 µM Pb) | sfGFP reporter fluorescence ([2]; ligand: 30 µM Zn)
70 | R39F V46C | 0.065 ± 0.0013 | 0.0632 ± 0.0031 | 0.0655 ± 0.0018
71 | R33C K104V | 0.06255 ± 0.00056 | 0.0618 ± 0.0011 | 0.0646 ± 0.0015
72 | I90L D131C | 0.0627 ± 0.00064 | 0.0647 ± 0.0038 | 0.122 ± 0.0066
73 | G128A L129M | 0.0617 ± 0.0017 | 0.0701 ± 0.0044 | 0.257 ± 0.034
74 | N83T E109A P143Y | 0.0646 ± 0.0022 | 0.0776 ± 0.0092 | 0.179 ± 0.017
75 | G32S C55M | 0.0668 ± 0.0018 | 0.0712 ± 0.0065 | 0.101 ± 0.0013
76 | G128I C134E | 0.0745 ± 0.0014 | 0.139 ± 0.0047 | 1.38 ± 0.067
77 | V108L C114L | 0.05962 ± 0.00056 | 0.0571 ± 0.003 | 0.0589 ± 0.0018
78 | N83I H89C | 0.0654 ± 0.0027 | 0.0645 ± 0.0035 | 0.0687 ± 0.0029
79 | N83F P143K | 0.0612 ± 0.00097 | 0.0718 ± 0.0033 | 0.0627 ± 0.00097
80 | P61N E94A | 0.0757 ± 0.0021 | 0.15 ± 0.0094 | 0.977 ± 0.065
81 | P61N E94C | 0.0858 ± 0.0022 | 0.186 ± 0.015 | 0.781 ± 0.13
82 | R111I C134P | 0.0589 ± 0.0022 | 0.0683 ± 0.0031 | 0.228 ± 0.0041
83 | L110I R111A | 0.0628 ± 0.00092 | 0.0635 ± 0.0042 | 0.415 ± 0.045
84 | D131H D135P | 0.0673 ± 0.0015 | 0.0988 ± 0.017 | 0.455 ± 0.04
85 | D131H D135A | 0.065 ± 0.00092 | 0.0777 ± 0.0089 | 0.402 ± 0.014
86 | N83S R111C | 0.06169 ± 0.00056 | 0.0672 ± 0.002 | 0.0665 ± 0.0011
87 | N83R L107H | 0.0594 ± 0.00064 | 0.0632 ± 0.0012 | 0.0662 ± 0.0035
88 | V16N L58A | 0.0597 ± 0.0018 | 0.0608 ± 0.00073 | 0.0591 ± 0.0024
89 | N83T I90S | 0.0629 ± 0.0014 | 0.0715 ± 0.0022 | 0.109 ± 0.0024
